One molecule from patent JP2021042960A (dated 2021) can be followed below.

The target of one assay is T1, ヒトCLDN9タンパク質 (human, UniProt O95484 1-217).
T1 construct: whole, on cells; Expressed with Venus in HEK293T cells; formalin-fixed paraffin sections of cell pellets; also called CLDN9
T1 sequence (looked up): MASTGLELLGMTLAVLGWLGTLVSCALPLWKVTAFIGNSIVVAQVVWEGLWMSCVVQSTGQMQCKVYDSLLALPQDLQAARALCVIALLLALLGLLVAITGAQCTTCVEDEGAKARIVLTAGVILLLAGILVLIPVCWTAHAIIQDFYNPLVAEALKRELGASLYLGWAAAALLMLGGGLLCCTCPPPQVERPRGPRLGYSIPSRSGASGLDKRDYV
The experiment in a line: immunohistochemistry on paraffin sections of HEK293T cells expressing the CLDN.

The target of another assay is T2, ヒトCLDN4タンパク質 (human, UniProt O14493 1-209).
T2 construct: whole, on cells; Expressed with Venus in HEK293T cells; formalin-fixed paraffin sections of cell pellets
T2 sequence (looked up): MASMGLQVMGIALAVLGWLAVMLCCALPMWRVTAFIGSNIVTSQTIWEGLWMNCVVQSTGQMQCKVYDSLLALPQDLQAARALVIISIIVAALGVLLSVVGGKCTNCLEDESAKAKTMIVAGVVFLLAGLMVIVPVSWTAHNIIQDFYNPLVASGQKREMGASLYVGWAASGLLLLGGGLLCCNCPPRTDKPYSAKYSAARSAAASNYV
The description is as above.

The next assay deals with T3, ヒトCLDN1タンパク質 (human, UniProt O95832 1-211).
T3 construct: whole, on cells; Expressed with Venus in HEK293T cells; formalin-fixed paraffin sections of cell pellets
T3 sequence (looked up): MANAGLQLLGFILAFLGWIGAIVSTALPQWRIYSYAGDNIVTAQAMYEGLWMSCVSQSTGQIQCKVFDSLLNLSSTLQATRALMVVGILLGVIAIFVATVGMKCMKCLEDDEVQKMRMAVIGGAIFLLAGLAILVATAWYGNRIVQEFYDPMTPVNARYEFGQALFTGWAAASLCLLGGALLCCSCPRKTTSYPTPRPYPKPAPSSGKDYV
Described as above.

The target of another assay is T4, ヒトCLDN6タンパク質 (human, UniProt P56747 1-220).
T4 construct: whole, on cells; Expressed with Venus in HEK293T cells; formalin-fixed paraffin sections of cell pellets
T4 sequence (looked up): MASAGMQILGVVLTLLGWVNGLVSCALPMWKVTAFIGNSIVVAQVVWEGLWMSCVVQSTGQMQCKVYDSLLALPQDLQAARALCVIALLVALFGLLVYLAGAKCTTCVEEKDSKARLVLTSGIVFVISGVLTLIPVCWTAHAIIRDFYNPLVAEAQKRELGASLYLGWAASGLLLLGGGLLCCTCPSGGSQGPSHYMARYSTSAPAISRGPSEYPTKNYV
The description is as above.

In another assay the target is T5, ヒトCLDN5タンパク質 (human, UniProt O00501 1-218).
T5 construct: whole, on cells; Expressed with Venus in HEK293T cells; formalin-fixed paraffin sections of cell pellets
T5 sequence (looked up): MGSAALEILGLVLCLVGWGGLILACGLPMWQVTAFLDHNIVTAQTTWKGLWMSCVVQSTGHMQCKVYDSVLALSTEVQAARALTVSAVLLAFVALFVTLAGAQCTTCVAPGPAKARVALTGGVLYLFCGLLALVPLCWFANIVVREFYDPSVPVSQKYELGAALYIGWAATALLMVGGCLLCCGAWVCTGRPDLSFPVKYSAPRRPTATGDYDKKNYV
The description is as above.

The next assay addresses T6, ヒトCLDN15タンパク質 (human, UniProt P56746 1-228).
T6 construct: Expressed in HEK293T cells from a plasmid that also expresses Venus; 228 residues, four-pass membrane protein; also called クローディン15; WT
T6 sequence: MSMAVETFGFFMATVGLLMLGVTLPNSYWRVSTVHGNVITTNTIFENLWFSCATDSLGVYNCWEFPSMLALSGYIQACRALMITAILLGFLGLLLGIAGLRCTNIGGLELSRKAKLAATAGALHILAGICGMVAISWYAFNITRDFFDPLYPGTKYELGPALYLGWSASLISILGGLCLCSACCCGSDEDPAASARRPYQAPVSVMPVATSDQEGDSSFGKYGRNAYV
The experiment in a line: immunohistochemistry on paraffin sections of CLDN-expressing cell pellets and of patients' malignant pleural mesothelioma tissue.

B1: ラット抗ヒトCLDN15モノクローナル抗体クローン2C11 (antibody, V domains shown)
VH: AVQLVESGGGLVQPKESLKISCAASGFTFSNAAMYWVRQAPGKGLEWVARIRTKPNNYATYYADSVKGRFTISRDDSKSMVYLQMDNLKTEDSAMYYCTAPAYYFGYWGQGVMVTVSS
VL: DVVLTQTPPTLSATIGQSVSISCRSSQSLLHSNGNTYLHWLLQRPGQSPQLLIYLVSRLESGVPNRFSGSGSGTDFTLKISGVEAEDLGVYYCVQGTHAPWTFGGGTKLELK
notes: Rat monoclonal antibody from a hybridoma, used as culture supernatant and detected with anti-rat IgG-HRP; also called 2C11抗体; 抗CLDN15モノクローナル抗体(2C11)
As to B1, the binding result in the assay with ヒトCLDN9タンパク質 was “no binding”; with ヒトCLDN4タンパク質, “no binding”; with ヒトCLDN1タンパク質, “no binding”; with ヒトCLDN6タンパク質 it was “no binding”; with ヒトCLDN5タンパク質 it was “no binding”; with ヒトCLDN15タンパク質, “binds”.
